Test results published in patent EP4817631A2 (AbbVie Deutschland GmbH & Co. KG, dated 2026).
Numbering of substitutions follows the chain as printed.

T1: hRGMc expressed in 293HEK cells (human, UniProt Q6ZVN8 36-400)
T1 sequence: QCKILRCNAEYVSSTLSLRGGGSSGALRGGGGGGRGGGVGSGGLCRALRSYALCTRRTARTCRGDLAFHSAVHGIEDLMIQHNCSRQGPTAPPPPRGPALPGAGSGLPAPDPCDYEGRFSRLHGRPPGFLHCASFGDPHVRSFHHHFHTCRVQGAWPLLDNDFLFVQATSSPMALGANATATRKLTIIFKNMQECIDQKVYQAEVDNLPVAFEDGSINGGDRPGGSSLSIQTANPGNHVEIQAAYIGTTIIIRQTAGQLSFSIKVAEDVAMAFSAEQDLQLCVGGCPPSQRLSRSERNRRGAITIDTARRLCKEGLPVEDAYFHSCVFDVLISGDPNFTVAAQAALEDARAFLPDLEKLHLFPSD

T2: R &D hRGMc-His (human, UniProt Q6ZVN8 36-400)
T2 construct: Bought (R&D) His-tagged human RGMc; also called human RGMc; not shown: His tag
T2 sequence: T1 sequence

T3: hRGMa-His (human, UniProt Q96B86 48-422, limits assumed)
T3 construct: not shown: His tag
T3 sequence: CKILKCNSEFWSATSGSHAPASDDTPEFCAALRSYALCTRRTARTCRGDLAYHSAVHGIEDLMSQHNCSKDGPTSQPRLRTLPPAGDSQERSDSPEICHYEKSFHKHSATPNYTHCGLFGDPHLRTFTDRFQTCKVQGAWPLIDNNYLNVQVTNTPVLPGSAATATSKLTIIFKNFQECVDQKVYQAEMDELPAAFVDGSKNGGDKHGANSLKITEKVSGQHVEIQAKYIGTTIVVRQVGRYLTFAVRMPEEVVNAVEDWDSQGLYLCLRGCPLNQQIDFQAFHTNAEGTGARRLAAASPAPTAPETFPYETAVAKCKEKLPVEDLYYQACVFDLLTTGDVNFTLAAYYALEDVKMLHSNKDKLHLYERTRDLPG

B1: humanized antibody 5F9.23 (antibody, V domains shown)
VH: EVQLVESGGGLVQPGGSLRLSCAASGFTFSNYGMNWIRQAPGKGLEWIGMIYYDSSEKHYADSVKGRFTISRDNSKNTLYLQMNSLRAEDTAVYYCAKGTTPDYWGQGTMVTVSS
VL: DVVLTQSPLSLPVTLGQPASISCRSSQSLEYSDGYTFLEWFQQRPGQSPRLLIYEVSNRFSGVPDRFSGSGSGTDFTLKISRVEAEDVGVYYCFQATHDPLTFGQGTKLEIKR
notes: Humanized parental antibody; also called h5F9.23; H5F9.23*
B2: h5F9.AM4 (antibody, V domains shown)
VH: B1 VH
VL: DVVLTQSPLSLPVTLGQPASISCRSSQSLESSDGDTFLEWFQQRPGQSPRLLIYDVSTRFSGVPDRFSGSGSGTDFTLKISRVEAEDVGVYYCFQVTHDPVTFGQGTKLEIK
notes: also called RGMA-h5F9AM.4; RGMA-h5F9Vh7a/pJP29 1 hIgG1/K mut
B3: h5F9.AM8 (antibody, V domains shown)
VH: B1 VH
VL: B2 VL with S31E, D35Y, E39H, D55E, V96A, V101L
notes: also called RGMA-h5F9AM.8; RGMA-h5F9pJP297/pJP 298 hIgG1/K mut
B4: h5F9.AM9 (antibody, V domains shown)
VH: B1 VH with L11V, G16R, I37V, I48V, G49A, K98R
VL: B2 VL with E30A, S31D, E39H, D55A, T58H, V96A
notes: also called RGMA-h5F9AM.9; RGMA-h5F9pJP297/pJP 299 hIgG1/K mut
B5: h5F9.AM11 (antibody, V domains shown)
VH: B1 VH with I37V, I48V, G49S
VL: B2 VL with S31D, D35G, T58S, V96A, V101L, T102S
notes: also called RGMA-h5F9AM; 11; RGMA-h5F9pJP302/pJP 303 hIgG1/K mut

Target: T1, hRGMc expressed in 293HEK cells
Assay: cell-based or functional assay

| IC50, RGMc-mediated BMP reporter (BRE-luc) assay [nM] | Binder |
| --- | --- |
| 17 | B1 |

Target: Rat RGMa-His (rat) (UniProt D4A188)
Assay: affinity KD as listed in Table 4 (equals BIAcore value of Table 5)

| Kd [nM] | Binder |
| --- | --- |
| < 0.00094 | B2 |
| < 0.0015 | B3 |
| 0.31 | B4 |
| 0.074 | B5 |

Target: T2, R &D hRGMc-His
Assay: BIAcore; Ab captured on CM5 chip via anti-hIgG Fc Ab, antigen injected; 1:1 Langmuir fit

| Kd [nM] | koff [s⁻¹] | kon [M⁻¹ s⁻¹] | Binder |
| --- | --- | --- | --- |
| 0.13 | 0.00104 | 7.85e+06 | B2 |
| 29 |  | 830000 | B1 |
| 0.105 | 0.00039 | 3.95e+06 | B3 |
| 0.71 | 0.0107 | 1.55e+07 | B4 |
| 0.285 | 0.0014 | 5.05e+06 | B5 |

Target: T3, hRGMa-His
Assay: as above

| Kd [nM] | koff [s⁻¹] | kon [M⁻¹ s⁻¹] | Binder |
| --- | --- | --- | --- |
| 0.015 | 2.2e-05 | 1.4e+06 | B2 |
| 0.031 | 2.7e-05 | 870000 | B3 |
| 0.47 | 0.0004 | 860000 | B4 |
| 0.11 | 9.9e-05 | 930000 | B5 |

Target: Rat RGMa-His (rat) (UniProt D4A188)
Assay: as above

| Kd [nM] | koff [s⁻¹] | kon [M⁻¹ s⁻¹] | Binder |
| --- | --- | --- | --- |
| < 0.00094 | < 1e-06 | 1.1e+06 | B2 |
| 2.1 | 0.0017 | 830000 | B1 |
| < 0.0015 | < 1e-06 | 660000 | B3 |
| 0.31 | 0.00021 | 680000 | B4 |
| 0.074 | 5.2e-05 | 700000 | B5 |

Target: T3, hRGMa-His
Assay: affinity KD as listed in Table 4 (equals BIAcore value of Table 5)

| Kd [nM] | Binder |
| --- | --- |
| 0.015 | B2 |
| 0.031 | B3 |
| 0.47 | B4 |
| 0.11 | B5 |

Target: T2, R &D hRGMc-His
Assay: affinity KD as listed in Table 4; method not given

| Kd [nM] | Binder |
| --- | --- |
| 0.12 | B2 |
| 0.08 | B3 |
| 0.69 | B4 |
| 0.25 | B5 |
